Experiment in all cases: MITOMI
The target of one series is T1, RXRα (UniProt P28700).
T1 sequence: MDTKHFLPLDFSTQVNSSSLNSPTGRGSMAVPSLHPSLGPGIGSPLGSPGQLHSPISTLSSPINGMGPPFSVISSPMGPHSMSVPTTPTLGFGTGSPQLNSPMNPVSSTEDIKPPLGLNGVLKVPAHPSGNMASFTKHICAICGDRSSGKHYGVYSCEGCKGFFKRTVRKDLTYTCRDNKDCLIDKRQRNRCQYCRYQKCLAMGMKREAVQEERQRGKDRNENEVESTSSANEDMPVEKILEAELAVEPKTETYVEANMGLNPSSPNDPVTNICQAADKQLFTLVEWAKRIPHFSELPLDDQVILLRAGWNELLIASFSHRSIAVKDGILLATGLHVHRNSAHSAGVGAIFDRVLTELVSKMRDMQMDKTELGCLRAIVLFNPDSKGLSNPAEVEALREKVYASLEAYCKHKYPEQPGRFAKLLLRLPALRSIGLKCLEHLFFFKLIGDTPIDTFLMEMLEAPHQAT
Particulars: On-chip MITOMI, 1 h equilibration; buffer, salt, pH and temperature not in the material (as ref. 23).

In another series the target is T2, PPARγ (UniProt P37238).
T2 sequence: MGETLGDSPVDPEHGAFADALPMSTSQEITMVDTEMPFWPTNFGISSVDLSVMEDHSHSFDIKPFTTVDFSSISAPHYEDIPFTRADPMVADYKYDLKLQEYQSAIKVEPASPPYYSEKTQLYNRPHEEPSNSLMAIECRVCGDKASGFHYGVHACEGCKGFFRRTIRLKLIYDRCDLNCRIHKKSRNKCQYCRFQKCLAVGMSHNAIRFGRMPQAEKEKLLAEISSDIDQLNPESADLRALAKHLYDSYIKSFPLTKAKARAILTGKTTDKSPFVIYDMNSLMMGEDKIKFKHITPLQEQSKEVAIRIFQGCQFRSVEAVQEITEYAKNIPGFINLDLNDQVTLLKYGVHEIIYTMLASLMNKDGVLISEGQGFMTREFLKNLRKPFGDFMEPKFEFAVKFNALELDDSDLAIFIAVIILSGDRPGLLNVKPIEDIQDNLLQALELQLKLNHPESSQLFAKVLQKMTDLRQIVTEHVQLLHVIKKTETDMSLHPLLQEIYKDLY
The note with it: On-chip MITOMI, 1 h equilibration; buffer, salt, pH and temperature not in the material (as ref. 23).

Series [1] deals with PPARγ;RXRα (Mus musculus?;Mus musculus?) (UniProt P37238+P28700). The note with it: KDoD from cooperative model; On-chip MITOMI, 1 h equilibration; buffer, salt, pH and temperature not in the material (as ref. 23).

With “AAACTAGGTCAAAGGTCAAT (double strand) [PPRE A20T]”, the Ka in the series with RXRα was found to be 2.79e+08 M⁻¹.

With “AAAATAGGTCAAAGGTCAAA (double strand) [PPRE C4A]”, the Ka in the series with RXRα worked out at 1.64e+08 M⁻¹. In the case of “AAACGAGGTCAAAGGTCAAA (double strand) [PPRE T5G]”, the Ka with RXRα turned out to be 9.82e+07 M⁻¹.

Take “AAACTAGGTCAAAGGTCAAA (double strand) [PPRE]”: the Ka with PPARγ was 2.08e+06 M⁻¹; in series [1], 1.46e+22 M-2; with RXRα, 1.98e+08 M⁻¹.

Consider “AAATTAGGTCAAAGGTCAAA (double strand) [PPRE C4T]”, for which, in the series with RXRα, the Ka was 2.59e+08 M⁻¹.

Take “AAACTAGGTCAAACGTCAAA (double strand) [PPRE G14C]”: in the series with RXRα, the Ka was 860000 M⁻¹. Same read-out and setting: the value for “CAACTAGGTCAAAGGTCAAA (double strand) [PPRE A1C]” was 1.17e+08 M⁻¹; that for “AAACTATGTCAAAGGTCAAA (double strand) [PPRE G7T]” was 9.75e+06 M⁻¹. For the sequence “ACACTAGGTCAAAGGTCAAA (double strand) [PPRE A2C]”, in the series with RXRα, the Ka was found to be 4.33e+07 M⁻¹. On the same count and under the same terms, under “AAACTAGGGCAAAGGTCAAA (double strand) [PPRE T9G]” stands 9.19e+06 M⁻¹.

In the case of “AGACTAGGTCAAAGGTCAAA (double strand) [PPRE A2G]”, the Ka with RXRα turned out to be 2.05e+08 M⁻¹. Still for that read-out and setting: the value for “AAACTAGGTCCAAGGTCAAA (double strand) [PPRE A11C]” was 368000 M⁻¹. On the same count and under the same terms, the value for “AAACTAGGACAAAGGTCAAA (double strand) [PPRE T9A]” was 2.04e+06 M⁻¹.

Regarding “AAACTAGGTCAAAGGTGAAA (double strand) [PPRE C17G]”, the Ka in the series with RXRα came to 1.32e+07 M⁻¹.

For “AAACTAAGTCAAAGGTCAAA (double strand) [PPRE G7A]”, in the series with RXRα, the Ka is 7.36e+06 M⁻¹. As for “AAACTAGGTCAAAGGTCATA (double strand) [PPRE A19T]”, the Ka with RXRα worked out at 3.78e+07 M⁻¹. Same read-out and setting: the value for “AAACTGGGTCAAAGGTCAAA (double strand) [PPRE A6G]” was 1.73e+08 M⁻¹. With “AAACCAGGTCAAAGGTCAAA (double strand) [PPRE T5C]”, the Ka with RXRα came out at 3.82e+08 M⁻¹. “AAACTAGGTCAAAGTTCAAA (double strand) [PPRE G15T]”: the Ka with RXRα came to 4.44e+07 M⁻¹. With “GAACTAGGTCAAAGGTCAAA (double strand) [PPRE A1G]”, the Ka with RXRα was 1e+08 M⁻¹. Still for that read-out and setting: under “AAACTAGGTCAGAGGTCAAA (double strand) [PPRE A12G]” stands 2.69e+07 M⁻¹; under “AAACTAGGTCAAAGGTAAAA (double strand) [PPRE C17A]”, 4.39e+06 M⁻¹; under “AAACTAGGTCTAAGGTCAAA (double strand) [PPRE A11T]”, 802000 M⁻¹. Take “AAACTAGGTCAAAGGGCAAA (double strand) [PPRE T16G]”: the Ka with RXRα came to 1.33e+07 M⁻¹. On the same count and under the same terms, the value for “AAACTAGGTCAAAAGTCAAA (double strand) [PPRE G14A]” was 2.41e+06 M⁻¹. Take “AAACTCGGTCAAAGGTCAAA (double strand) [PPRE A6C]”: the Ka with RXRα worked out at 8.8e+06 M⁻¹. For the sequence “AAACTAGGTCACAGGTCAAA (double strand) [PPRE A12C]”, the Ka with RXRα amounted to 7.95e+06 M⁻¹. On the same count and under the same terms, under “AAACTAGGTCAAAGGTCACA (double strand) [PPRE A19C]” stands 1.22e+08 M⁻¹.

Regarding “AAACTACGTCAAAGGTCAAA (double strand) [PPRE G7C]”, the Ka in the series with RXRα came out at 6.66e+06 M⁻¹. The same measure, in the same setting: under “AAACTAGGTCAAAGGTCAGA (double strand) [PPRE A19G]” stands 1.1e+07 M⁻¹. For “AAACTAGTTCAAAGGTCAAA (double strand) [PPRE G8T]”, the Ka with RXRα amounted to 2.54e+07 M⁻¹. The same measure, in the same setting: under “AAACTAGGTCAAAGGCCAAA (double strand) [PPRE T16C]” stands 3.59e+06 M⁻¹. The same measure, in the same setting: the value for “AAACTAGGTCAAATGTCAAA (double strand) [PPRE G14T]” was 5.14e+06 M⁻¹. The same measure, in the same setting: the value for “AAACTAGATCAAAGGTCAAA (double strand) [PPRE G8A]” was 4.91e+06 M⁻¹; that for “AAACTAGGTCAAAGGTCAAG (double strand) [PPRE A20G]” was 1e+09 M⁻¹. For the sequence “AAACTAGGTAAAAGGTCAAA (double strand) [PPRE C10A]”, the Ka with RXRα came out at 3.42e+06 M⁻¹. Still for that read-out and setting: under “AAACTAGGTCAATGGTCAAA (double strand) [PPRE A13T]” stands 398000 M⁻¹; under “AAACTAGCTCAAAGGTCAAA (double strand) [PPRE G8C]”, 980000 M⁻¹.

Consider “AACCTAGGTCAAAGGTCAAA (double strand) [PPRE A3C]”, for which the Ka in the series with RXRα was determined as 1.25e+08 M⁻¹.

For the sequence “AAACAAGGTCAAAGGTCAAA (double strand) [PPRE T5A]”, in the series with RXRα, the Ka was found to be 7.87e+07 M⁻¹.

For “AAACTAGGTTAAAGGTCAAA (double strand) [PPRE C10T]”, in the series with RXRα, the Ka was 1.7e+07 M⁻¹. Turning to “AAACTAGGTCAAGGGTCAAA (double strand) [PPRE A13G]”, the Ka with RXRα was 1.61e+07 M⁻¹. Turning to “AAACTAGGTCAAAGGACAAA (double strand) [PPRE T16A]”, the Ka with RXRα turned out to be 906000 M⁻¹. Still for that read-out and setting: under “AAACTAGGTCAACGGTCAAA (double strand) [PPRE A13C]” stands 1.05e+06 M⁻¹; under “AAACTAGGTCAAAGGTCAAC (double strand) [PPRE A20C]”, 9.97e+08 M⁻¹; under “AAACTAGGTCATAGGTCAAA (double strand) [PPRE A12T]”, 4.38e+07 M⁻¹.

As for “AAAGTAGGTCAAAGGTCAAA (double strand) [PPRE C4G]”, the Ka with RXRα came to 1.38e+08 M⁻¹. Turning to “TAACTAGGTCAAAGGTCAAA (double strand) [PPRE A1T]”, the Ka with RXRα stood at 1.01e+08 M⁻¹. Consider “AAACTAGGTCGAAGGTCAAA (double strand) [PPRE A11G]”, for which, in the series with RXRα, the Ka is 5.54e+06 M⁻¹. Still for that read-out and setting: under “AAACTAGGTCAAAGCTCAAA (double strand) [PPRE G15C]” stands 218000 M⁻¹; under “AAACTAGGTGAAAGGTCAAA (double strand) [PPRE C10G]”, 2.66e+07 M⁻¹. Regarding “AAGCTAGGTCAAAGGTCAAA (double strand) [PPRE A3G]”, in the series with RXRα, the Ka turned out to be 5.27e+07 M⁻¹. Consider “ATACTAGGTCAAAGGTCAAA (double strand) [PPRE A2T]”, for which, in the series with RXRα, the Ka came out at 1.45e+08 M⁻¹. Consider “AATCTAGGTCAAAGGTCAAA (double strand) [PPRE A3T]”, for which the Ka in the series with RXRα was 1.98e+08 M⁻¹. On the same count and under the same terms, the value for “AAACTTGGTCAAAGGTCAAA (double strand) [PPRE A6T]” was 4.68e+06 M⁻¹; that for “AAACTAGGTCAAAGATCAAA (double strand) [PPRE G15A]” was 2.73e+06 M⁻¹. Still for that read-out and setting: under “AAACTAGGCCAAAGGTCAAA (double strand) [PPRE T9C]” stands 5.86e+06 M⁻¹.

These data come from PMC4858977.
